Reference: patent publication EP2056867B1

Assays:
scavenger receptor CD36 [1] = assay: flow cytometry on CD36-transfected CHO cells, rAv17 at 5 µg/ml; detected with an anti-cystatin mAb and a FITC secondary antibody; baseline 20%
scavenger receptor CD36 [2] = assay: flow cytometry on CD36-transfected CHO cells, rAv17 at 2.5 µg/ml; detected with an anti-cystatin mAb and a FITC secondary antibody; baseline 20%

**Q.** For “recombinant Acanthocheilonema viteae cystatin (rAv17)”, which fluorescence positive cells (scavenger receptor CD36 [1]) is on record?
**A.** The fluorescence positive cells was 89%.

**Q.** What about the fluorescence positive cells (scavenger receptor CD36 [2]) of the same substance?
**A.** The fluorescence positive cells was 71%.
